For this assay, the target named is T1, A02_YLQ peptide on HLA-A*02:01 (human).
T1 peptide: YLQPRTFLL
The assay can be described thus: multimer staining.

B1: 839 (TCR)
alpha TRAV12-1 TRAJ47 CDR3: CVVNRADKLVF
beta TRBV7-9 TRBJ2-2 CDR3: CASSDANTGELFF
On to B1, for which the binding result is reported as “recognises”.

Values taken from publication PMC9106845 (2022).
